Assay results taken from PMC3565064 (Analytical biochemistry, 2012).
Ends that are not written are not given here. * marks the point of attachment. Fc = ferrocene monocarboxylic acid coupled as acyl group on the N-terminus, O=C([c-]1cccc1)*.[Fe+2].c1cc[cH-]c1

Biological target: amyloid beta peptide Aβ(1–42) (UniProt P05067 672-713)
Test: differential pulse voltammetry of the ferrocene tag

B1: ferrocene-tagged β-sheet breaker peptide Fc-KLVFFK6 (peptide)
peptide: Fc-KLVFFKKKKKK
B1 was tested, and the “t1/2 at [Fc-KLVFFK6]:[Aβ(1–42)] 1:0.25” value was 1.29 h, the “t1/2 at [Fc-KLVFFK6]:[Aβ(1–42)] 1:0.5” value was 1.35 h and the “t1/2 at [Fc-KLVFFK6]:[Aβ(1–42)] 1:1” value was 1.53 h. For the same binder, the “t1/2 at [Fc-KLVFFK6]:[Aβ(1–42)] 1:2” value was 1.13 h and the “t1/2 at [Fc-KLVFFK6]:[Aβ(1–42)] 1:4” value was 1.02 h.
